Assay results published in publication PMC11178795, “Hydrogen peroxide is required for light-induced stomatal opening across different plant species” (Nature Communications, 2024).

B1: MBP-BZR1 (natural protein, Arabidopsis thaliana, UniProt Q8S307 1-336, looked up)
chain: MTSDGATSTSAAAAAAAAAAARRKPSWRERENNRRRERRRRAVAAKIYTGLRAQGDYNLPKHCDNNEVLKALCVEAGWVVEEDGTTYRKGCKPLPGEIAGTSSRVTPYSSQNQSPLSSAFQSPIPSYQVSPSSSSFPSPSRGEPNNNMSSTFFPFLRNGGIPSSLPSLRISNSCPVTPPVSSPTSKNPKPLPNWESIAKQSMAIAKQSMASFNYPFYAVSAPASPTHRHQFHTPATIPECDESDSSTVDSGHWISFQKFAQQQPFSASMVPTSPTFNLVKPAPQQMSPNTAAFQEIGQSSEFKFENSQVKPWEGERIHDVGMEDLELTLGNGKARG
notes: BRASSINAZOLE-RESISTANT1 (BZR1), Arabidopsis, AT1G75080; full-length coding region without stop codon; destination vector pMAL2CGW (N-MBP); source: Escherichia coli, purified (amylose resin); not shown: MBP, N-terminal, kept
B2: GST-BZR1 (natural protein, Arabidopsis thaliana, UniProt Q8S307 1-336, looked up)
chain: MTSDGATSTSAAAAAAAAAAARRKPSWRERENNRRRERRRRAVAAKIYTGLRAQGDYNLPKHCDNNEVLKALCVEAGWVVEEDGTTYRKGCKPLPGEIAGTSSRVTPYSSQNQSPLSSAFQSPIPSYQVSPSSSSFPSPSRGEPNNNMSSTFFPFLRNGGIPSSLPSLRISNSCPVTPPVSSPTSKNPKPLPNWESIAKQSMAIAKQSMASFNYPFYAVSAPASPTHRHQFHTPATIPECDESDSSTVDSGHWISFQKFAQQQPFSASMVPTSPTFNLVKPAPQQMSPNTAAFQEIGQSSEFKFENSQVKPWEGERIHDVGMEDLELTLGNGKARG
notes: BRASSINAZOLE-RESISTANT1 (BZR1), Arabidopsis, AT1G75080; full-length coding region without stop codon; destination vector pDEST15 (N-GST); source: Escherichia coli, purified (glutathione beads); not shown: GST, N-terminal, kept
B3: MBP-KIN10 (enzyme, Arabidopsis thaliana, UniProt Q38997 1-512, looked up)
chain: MDGSGTGSRSGVESILPNYKLGRTLGIGSFGRVKIAEHALTGHKVAIKILNRRKIKNMEMEEKVRREIKILRLFMHPHIIRLYEVIETPTDIYLVMEYVNSGELFDYIVEKGRLQEDEARNFFQQIISGVEYCHRNMVVHRDLKPENLLLDSKCNVKIADFGLSNIMRDGHFLKTSCGSPNYAAPEVISGKLYAGPEVDVWSCGVILYALLCGTLPFDDENIPNLFKKIKGGIYTLPSHLSPGARDLIPRMLVVDPMKRVTIPEIRQHPWFQAHLPRYLAVPPPDTVQQAKKIDEEILQEVINMGFDRNHLIESLRNRTQNDGTVTYYLILDNRFRASSGYLGAEFQETMEGTPRMHPAESVASPVSHRLPGLMEYQGVGLRSQYPVERKWALGLQSRAHPREIMTEVLKALQDLNVCWKKIGHYNMKCRWVPNSSADGMLSNSMHDNNYFGDESSIIENEAAVKSPNVVKFEIQLYKTRDDKYLLDLQRVQGPQFLFLDLCAAFLAQLRVL
notes: KIN10, catalytic subunit of SnRK1, Arabidopsis, AT3G01090; full-length coding region without stop codon; destination vector pMAL2CGW (N-MBP); source: Escherichia coli, purified (amylose resin); not shown: MBP, N-terminal, kept

Columns and labels:
GST-bZIP30 [1] = biological target: T1, GST-bZIP30 (Arabidopsis thaliana (Mouse-ear cress), UniProt Q9SIG8); experiment: GST pull-down; binding enhanced by 1 mM H2O2 (oxidation of BZR1, Cys63)
T1 chain: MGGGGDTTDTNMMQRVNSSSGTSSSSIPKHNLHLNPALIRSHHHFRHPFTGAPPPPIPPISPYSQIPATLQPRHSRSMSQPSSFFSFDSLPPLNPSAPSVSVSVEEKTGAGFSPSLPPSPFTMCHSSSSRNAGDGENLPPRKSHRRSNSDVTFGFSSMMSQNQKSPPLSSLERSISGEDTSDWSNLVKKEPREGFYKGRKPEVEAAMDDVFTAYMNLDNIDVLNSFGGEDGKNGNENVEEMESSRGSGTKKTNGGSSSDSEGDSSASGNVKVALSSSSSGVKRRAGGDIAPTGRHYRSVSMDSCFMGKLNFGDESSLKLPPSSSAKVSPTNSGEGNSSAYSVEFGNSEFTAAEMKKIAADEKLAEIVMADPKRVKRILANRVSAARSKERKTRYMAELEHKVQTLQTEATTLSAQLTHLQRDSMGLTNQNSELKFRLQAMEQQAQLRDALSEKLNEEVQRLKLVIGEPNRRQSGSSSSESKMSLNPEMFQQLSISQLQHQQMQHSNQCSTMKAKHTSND

GST-bZIP30 [2] = biological target: T2, GST-bZIP30 (Arabidopsis thaliana, UniProt Q9SIG8 1-519); experiment: pull-down; 1 μg GST fusion on glutathione beads incubated with 1 µg MBP or MBP fusion; 20 mM Tris-HCl pH 7.5, 100 mM NaCl, 1 mM EDTA; with or without 1 mM H2O2; room temperature; washes with 300 mM NaCl, 0.5% Triton X-100; anti-MBP immunoblot; conditions: both partners purified
T2 construct: bZIP30 transcription factor, Arabidopsis, AT2G21230; full-length coding region without stop codon; destination vector pDEST15 (N-GST); source: Escherichia coli, purified (glutathione beads); not shown: GST, N-terminal, kept
T2 sequence (looked up): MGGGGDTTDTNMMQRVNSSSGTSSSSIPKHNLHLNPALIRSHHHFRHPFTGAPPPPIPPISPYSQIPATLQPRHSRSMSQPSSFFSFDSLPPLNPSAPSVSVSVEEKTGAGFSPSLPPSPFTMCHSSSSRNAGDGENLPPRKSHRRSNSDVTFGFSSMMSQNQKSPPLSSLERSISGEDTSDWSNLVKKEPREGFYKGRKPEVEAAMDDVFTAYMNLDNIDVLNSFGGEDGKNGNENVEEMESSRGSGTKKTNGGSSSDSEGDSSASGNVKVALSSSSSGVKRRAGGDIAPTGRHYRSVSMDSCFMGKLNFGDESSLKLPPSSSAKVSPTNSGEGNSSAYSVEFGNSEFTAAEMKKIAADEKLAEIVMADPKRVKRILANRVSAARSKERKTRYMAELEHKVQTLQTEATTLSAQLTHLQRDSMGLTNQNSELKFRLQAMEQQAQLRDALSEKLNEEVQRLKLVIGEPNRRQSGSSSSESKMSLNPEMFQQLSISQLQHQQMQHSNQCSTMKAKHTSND

MBP-bZIP30 = biological target: T3, MBP-bZIP30 (Arabidopsis thaliana, UniProt Q9SIG8 1-519); experiment: as above; conditions: both partners purified
T3 construct: bZIP30 transcription factor, Arabidopsis, AT2G21230; full-length coding region without stop codon; destination vector pMAL2CGW (N-MBP); source: Escherichia coli, purified (amylose resin); not shown: MBP, N-terminal, kept
T3 sequence (looked up): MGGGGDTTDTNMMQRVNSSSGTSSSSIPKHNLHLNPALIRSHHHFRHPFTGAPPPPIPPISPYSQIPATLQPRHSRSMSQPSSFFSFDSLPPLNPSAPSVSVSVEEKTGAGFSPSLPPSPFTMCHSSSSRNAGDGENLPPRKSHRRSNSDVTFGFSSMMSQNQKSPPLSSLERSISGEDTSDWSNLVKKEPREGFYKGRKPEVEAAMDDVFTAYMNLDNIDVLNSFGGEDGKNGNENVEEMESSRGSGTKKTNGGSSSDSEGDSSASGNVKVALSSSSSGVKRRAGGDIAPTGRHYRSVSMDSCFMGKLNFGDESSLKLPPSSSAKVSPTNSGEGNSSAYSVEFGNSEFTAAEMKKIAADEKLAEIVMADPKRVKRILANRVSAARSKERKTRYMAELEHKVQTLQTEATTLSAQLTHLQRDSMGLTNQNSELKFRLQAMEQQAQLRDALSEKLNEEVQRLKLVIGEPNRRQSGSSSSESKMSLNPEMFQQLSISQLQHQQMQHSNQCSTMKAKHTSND

| Binder | binding result (GST-bZIP30 [1]) | binding result (GST-bZIP30 [2]) | binding result (MBP-bZIP30) |
| --- | --- | --- | --- |
| B1 | binds | binds |  |
| B2 |  |  | binds |
| B3 |  | binds |  |
